These results are taken from patent US20140294814A1 (SAMSUNG ELECTRONICS, published 2014).

Some results are limits rather than exact numbers.

Test [1] deals with T1, c-Met (NP_000236) (human, UniProt P08581 25-932, limits assumed).
T1 construct: also called antigen
Briefly: estimated from several ELISAs, Fab.

For test [2], the target named is T1, c-Met (NP_000236). Kind of test: ratio of the KD of chAbF46 to the KD of the clone.
Test [3] deals with T1, c-Met (NP_000236). Briefly: method and reference clone not given.
In test [4] the target is T1, c-Met (NP_000236). Kind of test: kinetic measurement, method and format not stated.
Test [5] concerns the target T2, human IgG1 Fc protein (human, UniProt P01857-1 100-330 = IgG part, limits assumed).
T2 construct: domain: Fc; Counter-screen antigen in the hybridoma ELISA; also called human Fc protein; human Fc
Kind of test: ELISA, plate-coated human IgG1 Fc protein, hybridoma culture supernatant. As to the method: The hybridoma cell culture obtained in Example 1(2) was added in an amount of 50 μL to each well of the plates and incubated for 1 hour. The cells remaining unreacted were washed out with a sufficient amount of Tris-buffered saline and Tween 20 (TBST). Goat anti-mouse IgG-horseradish peroxidase (HRP) was added to the plates and incubated for 1 hour at room temperature. The plates were washed with a sufficient amount of TBST. A substrate (OPD) of the peroxidase was added thereto, allowing the substrate and the peroxidase to react. The reaction level was determined by measuring absorbance at 450 nm on an ELISA reader. Hybridoma cell lines which secrete antibodies that specifically and strongly bind to human c-Met protein but not human Fc were selected repeatedly.
Background: An ELISA detects its analyte on a solid surface through an enzyme-linked reagent.

T1 sequence (P08581 25-932 limits assumed): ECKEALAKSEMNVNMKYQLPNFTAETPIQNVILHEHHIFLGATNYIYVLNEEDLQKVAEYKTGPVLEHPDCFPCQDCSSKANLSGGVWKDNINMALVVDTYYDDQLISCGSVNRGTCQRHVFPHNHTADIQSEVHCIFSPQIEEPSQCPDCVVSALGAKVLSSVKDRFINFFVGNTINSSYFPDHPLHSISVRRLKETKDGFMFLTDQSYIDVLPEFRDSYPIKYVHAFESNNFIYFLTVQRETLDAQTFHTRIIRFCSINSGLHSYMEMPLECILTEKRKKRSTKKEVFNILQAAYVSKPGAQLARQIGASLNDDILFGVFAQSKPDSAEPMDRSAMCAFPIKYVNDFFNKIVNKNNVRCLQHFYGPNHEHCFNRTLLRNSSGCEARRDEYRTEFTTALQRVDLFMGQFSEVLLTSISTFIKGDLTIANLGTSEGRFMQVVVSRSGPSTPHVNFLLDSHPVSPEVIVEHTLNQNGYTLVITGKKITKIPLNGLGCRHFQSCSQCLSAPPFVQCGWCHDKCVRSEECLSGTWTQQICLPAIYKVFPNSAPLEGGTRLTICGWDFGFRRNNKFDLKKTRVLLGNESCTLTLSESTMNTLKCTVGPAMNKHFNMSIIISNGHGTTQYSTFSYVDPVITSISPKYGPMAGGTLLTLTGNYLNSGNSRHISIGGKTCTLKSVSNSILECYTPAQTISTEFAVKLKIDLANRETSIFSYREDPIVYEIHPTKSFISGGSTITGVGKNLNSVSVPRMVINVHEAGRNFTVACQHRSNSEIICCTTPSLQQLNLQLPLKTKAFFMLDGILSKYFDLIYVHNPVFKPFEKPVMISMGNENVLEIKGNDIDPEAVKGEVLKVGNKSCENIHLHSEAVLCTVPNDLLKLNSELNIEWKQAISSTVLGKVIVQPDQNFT

B1: clone L3E (Fab, V domains shown)
VH: EVQLVESGGGLVQPGGSLRLSCAASGFTFTDYYISWVRQAPGKGLEWVGFIRNKANGYTTEYSASVKGRFTISRDDSKNSLYLQMNSLKTEDTAVYYCARDNWFAYWGQGTLVTVSS
VL: DIVMTQSPLSLPVTPGEPASISCKSSQSLLASGNQNNYLAWYLQKPGQSPQLLIYWASTRVSGVPDRFSGSGSGTDFTLKISRVEAEDVGVYYCQQSYSRPLTFGQGTKLEIKR
As a reminder, the Kd is the concentration at which binding is half-saturated. In the case of B1, the Kd in test [1] is around 30 nM.

B2: clone L1bA (Fab) (Fab, V domains shown)
VH: EVQLVESGGGLVQPGGSLRLSCAASGFTFTDYYISWVRQAPGKGLEWVGFIRNKANGYTTEYSASVKGRFTISRDDSKNSLYLQMNSLKTEDTAVYYCARDNWFAYWGQGTLVTVSS
VL: DIVMTQSPLSLPVTPGEPASISCKSSQSLLAWGNQNNYLAWYLQKPGQSPQLLIYWASTRVSGVPDRFSGSGSGTDFTLKISRVEAEDVGVYYCQQSYSRPLTFGQGTKLEIKR
notes: L3E with S27->W (S27E->W) in CDR-L1; Fab with human kappa constant region and CH1 of human IgG1; also called LlbA
Regarding B2, in test [1], the Kd is around 0.3 nM and the “fold improvement in binding over the starting clone L3E” value was around 100 fold. In test [2], the “WT KD/Mutant KD” value is 12.8 ratio.

B3: clone C28 (Fab) (Fab, V domains shown)
VH: EVQLVESGGGLVQPGGSLRLSCAASGFTFTDYYISWVRQAPGKGLEWVGFIRNKANGYTTEYSASVKGRFTISRDDSKNSLYLQMNSLKTEDTAVYYCARDNWFAYWGQGTLVTVSS
VL: DIVMTQSPLSLPVTPGEPASISCKSSQSLLAWSNQNNYLAWYLQKPGQSPQLLIYWAITRVGGVPDRFSGSGSGTDFTLKISRVEAEDVGVYYCQQSYSRPLTFGQGTKLEIKR
notes: Clone from the combinatorial library; Fab with human kappa constant region and CH1 of human IgG1
Consider B3, for which the “fold enhancement of binding ability” value in test [3] was around 3 fold. In addition, the “WT KD/Mutant KD” value in test [2] stood at 19.9 ratio.

B4: clone 1-F3 (Fab) (Fab, V domains shown)
VH: EVQLVESGGGLVQPGGSLRLSCAASGFTFTDYYISWVRQAPGKGLEWVGFIRNKANGYTTEYSASVKGRFTISRDDSKNSLYLQMNSLKTEDTAVYYCARDNWFAYWGQGTLVTVSS
VL: DIVMTQSPLSLPVTPGEPASISCKSSQSLLAWGNQNNYAAWYLQKPGQSPQLLIYWASTRVSGVPDRFSGSGSGTDFTLKISRVEAEDVGVYYCQQSYSRPLTFGQGTKLEIKR
notes: as for B3
With B4, the “fold enhancement of binding ability” value in test [3] was around 3 fold. In test [2], the “WT KD/Mutant KD” value came to 8.8 ratio.

B5: clone C30 (Fab) (Fab, V domains shown)
VH: EVQLVESGGGLVQPGGSLRLSCAASGFTFTDYYISWVRQAPGKGLEWVGFIRNKANGYTTEYSASVKGRFTISRDDSKNSLYLQMNSLKTEDTAVYYCARDNWFAYWGQGTLVTVSS
VL: DIVMTQSPLSLPVTPGEPASISCKSSQSLLAWGFQNNYLAWYLQKPGQSPQLLIYWASTRVGGVPDRFSGSGSGTDFTLKISRVEAEDVGVYYCQQSYSRPLTFGQGTKLEIKR
notes: as for B3
Regarding B5, the “fold enhancement of binding ability” value in test [3] was around 3 fold. Also, in test [2], the “WT KD/Mutant KD” value was 13.7 ratio.

B6: antibody C28m (mutated C28) (Fab, V domains shown)
VH: EVQLVESGGGLVQPGGSLRLSCAASGFTFTDYYISWVRQAPGKGLEWVGFIRNKANGYTTEYSASVKGRFTISRDDSKNSLYLQMNSLKTEDTAVYYCARDNWFAYWGQGTLVTVSS
VL: DIVMTQSPLSLPVTPGEPASISCKSSQSLLAWSNQNNYLAWYLQKPGQSPQMLIIWAITRVGGVPDRFSGSGSGTDFTLKISRVEAEDVGVYYCQQSYSRPYTFGQGTKLEIKR
notes: C28 with L46M, Y49I and L96Y in VL; Described as an antibody fragment cloned into the same vector as the wild type
As a reminder, the koff is the first-order rate constant of dissociation. Read a high koff as a short-lived complex. The kon is a measure of how fast the partners come together. A higher kon goes with fast association. In test [4], B6 gave a Kd below 0.01 nM, a koff below 7.4e-05 s⁻¹ and a kon of 940000 M⁻¹ s⁻¹.

B7: chimeric clone of AbF46 (Fab) (Fab, V domains shown)
VH: EVKLVESGGGLVQPGGSLRLSCATSGFTFTDYYMSWVRQPPGKALEWLGFIRNKANGYTTEYSASVKGRFTISRDNSQSILYLQMDTLRAEDSATYYCARDNWFAYWGQGTLVTVSA
VL: DILMTQSPSSLTVSAGEKVTMSCKSSQSLLASGNQNNYLAWHQQKPGRSPKMLIIWASTRVSGVPDRFIGSGSGTDFTLTINSVQAEDLAVYYCQQSYSAPLTFGAGTKLELKR
notes: also called chAbF46
Regarding B7, in test [4], the dissociation constant Kd is 2.19 nM, the koff was found to be 0.000723 s⁻¹ and the kon came to 329000 M⁻¹ s⁻¹. Also, the Kd in test [1] was around 4 nM.

B8: mouse antibody AbF46 (antibody, V domains shown)
VH: EVKLVESGGGLVQPGGSLRLSCATSGFTFTDYYMSWVRQPPGKALEWLGFIRNKANGYTTEYSASVKGRFTISRDNSQSILYLQMDTLRAEDSATYYCARDNWFAYWGQGTLVTVSA
VL: DILMTQSPSSLTVSAGEKVTMSCKSSQSLLASGNQNNYLAWHQQKPGRSPKMLIIWASTRVSGVPDRFIGSGSGTDFTLTINSVQAEDLAVYYCQQSYSAPLTFGAGTKLELKR
notes: Mouse monoclonal antibody from a hybridoma; also called monoclonal antibody of hybridoma KCLRF-BP-00220
Turning to B8, the binding result in test [5] is given as “no binding”.
